Measured values from US20050276757.

Tested on: p120 catenin expressed from a transfected plasmid (exogenous p120, HA-tagged in Example 1)

“ZC1 kinase, over-expressed from a plasmid (active full-length ZC1)” was tested, and the “in vitro phosphorylation (32P-ATP, autoradiography)” value was “p120 immunoprecipitated from cells co-expressing ZC1 also showed phosphorylation of p120 in vitro by associated ZC1”.
